From article doi:10.1101/2025.07.08.663041

Assays:
[1] = target: Caveolin-1 I121C 98W (UniProt Q03135)
[2] = target: Caveolin-1 L125C 98W (UniProt Q03135)

Row | Substance | stoichiometry N [1] | stoichiometry N [2]
1 | Caveolin-1 I121C 98W (from UniProt Q03135 1-178) (natural protein) | 2 | 
2 | Caveolin-1 L125C 98W (from UniProt Q03135 1-178) (natural protein) |  | 2
